Here are results for ten molecules from patent US20210324028A1 (Pfizer, published 2021).

As usually defined, the Kd is the concentration at which binding is half-saturated. A higher Kd goes with weaker binding.

The target of one assay is T1, human IL-15Rα (human, UniProt Q13261 31-205, limits assumed).
T1 construct: also called hIL-15Rα; IL-15 receptor alpha
Description: SPR, steady state. For orientation: Surface plasmon resonance follows binding to a sensor surface in real time, without labels.

A further assay addresses T2, human IL-2Rβ (human, UniProt P14784 27-240, limits assumed).
T2 construct: also called hIL-2Rβ; IL-2 receptor beta
T2 sequence (looked up): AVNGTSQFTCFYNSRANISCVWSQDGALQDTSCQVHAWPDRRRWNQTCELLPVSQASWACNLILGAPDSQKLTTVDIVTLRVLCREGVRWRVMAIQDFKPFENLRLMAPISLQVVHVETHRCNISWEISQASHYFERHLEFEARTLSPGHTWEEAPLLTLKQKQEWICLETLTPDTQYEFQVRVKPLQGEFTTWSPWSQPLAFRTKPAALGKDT
Description: SPR, steady state.

T1 sequence (Q13261 31-205 limits assumed): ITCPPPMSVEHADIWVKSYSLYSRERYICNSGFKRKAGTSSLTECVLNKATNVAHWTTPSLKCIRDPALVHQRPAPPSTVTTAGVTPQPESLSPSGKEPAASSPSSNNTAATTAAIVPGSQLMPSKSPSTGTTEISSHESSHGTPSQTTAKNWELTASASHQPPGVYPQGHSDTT

B1: hIL-15 V49R/I111D (ligand)
chain: NWVNVISDLKKIEDLIQSMHIDATLYTESDVHPSCKVTAMKCFLLELQRISLESGDASIHDTVENLIILANNSLSSNGNVTESGCKECEELEEKNIKEFLQSFVHIVQMFDNTGGGGSGHHHHHHHHGGGLNDIFEAQKIEWHE
On to B1, for which the Kd in the assay with human IL-15Rα was 214 nM; in the assay with human IL-2Rβ it was greater than 500 nM.

B2: hIL-15 V49R/I111S (ligand)
chain: NWVNVISDLKKIEDLIQSMHIDATLYTESDVHPSCKVTAMKCFLLELQRISLESGDASIHDTVENLIILANNSLSSNGNVTESGCKECEELEEKNIKEFLQSFVHIVQMFSNTGGGGSGHHHHHHHHGGGLNDIFEAQKIEWHE
As for B2, the values for the equilibrium dissociation constant (Kd) with human IL-15Rα and with human IL-2Rβ were 223 nM and greater than 500 nM, respectively.

B3: hIL-15 V49R/K10E (ligand)
chain: NWVNVISDLEKIEDLIQSMHIDATLYTESDVHPSCKVTAMKCFLLELQRISLESGDASIHDTVENLIILANNSLSSNGNVTESGCKECEELEEKNIKEFLQSFVHIVQMFINTGGGGSGHHHHHHHHGGGLNDIFEAQKIEWHE
B3: the Kd is 126 nM with human IL-15Rα and 360 nM with human IL-2Rβ.

B4: hIL-15 V49R/K10H (ligand)
chain: NWVNVISDLHKIEDLIQSMHIDATLYTESDVHPSCKVTAMKCFLLELQRISLESGDASIHDTVENLIILANNSLSSNGNVTESGCKECEELEEKNIKEFLQSFVHIVQMFINTGGGGSGHHHHHHHHGGGLNDIFEAQKIEWHE
With B4, the results for the Kd in the assay with human IL-15Rα and in the assay with human IL-2Rβ were 85.6 nM and 114 nM, respectively.

B5: hIL-15 V49R/K10L (ligand)
chain: NWVNVISDLLKIEDLIQSMHIDATLYTESDVHPSCKVTAMKCFLLELQRISLESGDASIHDTVENLIILANNSLSSNGNVTESGCKECEELEEKNIKEFLQSFVHIVQMFINTGGGGSGHHHHHHHHGGGLNDIFEAQKIEWHE
In the case of B5, the values for the Kd with human IL-15Rα and with human IL-2Rβ were 124 nM and 348 nM, respectively.

B6: hIL-15 V49R/K10A (ligand)
chain: NWVNVISDLAKIEDLIQSMHIDATLYTESDVHPSCKVTAMKCFLLELQRISLESGDASIHDTVENLIILANNSLSSNGNVTESGCKECEELEEKNIKEFLQSFVHIVQMFINTGGGGSGHHHHHHHHGGGLNDIFEAQKIEWHE
As for B6, the Kd stood at 150 nM in the assay with human IL-15Rα and 321 nM in the assay with human IL-2Rβ.

B7: hIL-15 V49R/I111K (ligand)
chain: NWVNVISDLKKIEDLIQSMHIDATLYTESDVHPSCKVTAMKCFLLELQRISLESGDASIHDTVENLIILANNSLSSNGNVTESGCKECEELEEKNIKEFLQSFVHIVQMFKNTGGGGSGHHHHHHHHGGGLNDIFEAQKIEWHE
As to B7, the dissociation constant (Kd) turned out to be 199 nM with human IL-15Rα and 397 nM in the assay with human IL-2Rβ.

B8: hIL-15 V49R/K10M (ligand)
chain: NWVNVISDLMKIEDLIQSMHIDATLYTESDVHPSCKVTAMKCFLLELQRISLESGDASIHDTVENLIILANNSLSSNGNVTESGCKECEELEEKNIKEFLQSFVHIVQMFINTGGGGSGHHHHHHHHGGGLNDIFEAQKIEWHE
With B8, the values for the Kd with human IL-15Rα and with human IL-2Rβ were 122 nM and 391 nM, respectively.

B9: hIL-15 V49R/K10G (ligand)
chain: NWVNVISDLGKIEDLIQSMHIDATLYTESDVHPSCKVTAMKCFLLELQRISLESGDASIHDTVENLIILANNSLSSNGNVTESGCKECEELEEKNIKEFLQSFVHIVQMFINTGGGGSGHHHHHHHHGGGLNDIFEAQKIEWHE
Take B9: the dissociation constant Kd is 209 nM in the assay with human IL-15Rα and greater than 500 nM with human IL-2Rβ.

B10: hIL-15 V49R/K10D (ligand)
chain: NWVNVISDLDKIEDLIQSMHIDATLYTESDVHPSCKVTAMKCFLLELQRISLESGDASIHDTVENLIILANNSLSSNGNVTESGCKECEELEEKNIKEFLQSFVHIVQMFINTGGGGSGHHHHHHHHGGGLNDIFEAQKIEWHE
As to B10, the Kd is 270 nM in the assay with human IL-15Rα and greater than 500 nM with human IL-2Rβ.
